Measurements as given in PMC8809517, “Cofactor-independent RNA editing by a synthetic S-type PPR protein”.

Experiments:
Assay in all cases: high-throughput RNA pulldown from lysate on Ni-NTA beads; HRP: 50 mM Tris pH 8, 150 mM NaCl, 1 mM beta-mercaptoethanol, 50 ug/ml BSA, 3 ug/ml yeast RNA, 0.5% heparin; ITC and FP: Tris pH 8, 200 mM KCl, 5% glycerol; MST: 50 mM Tris pH 8, 200 mM NaCl, 1 mM DTT, BSA, heparin, 0.05% Tween 20
Conditions in all cases: tags: N-terminal His-eGFP
[1] = target: T1, GFP-9S library array, motif 4 ND N98S;D124K (synthetic construct, N98S;D124K)
T1 chain: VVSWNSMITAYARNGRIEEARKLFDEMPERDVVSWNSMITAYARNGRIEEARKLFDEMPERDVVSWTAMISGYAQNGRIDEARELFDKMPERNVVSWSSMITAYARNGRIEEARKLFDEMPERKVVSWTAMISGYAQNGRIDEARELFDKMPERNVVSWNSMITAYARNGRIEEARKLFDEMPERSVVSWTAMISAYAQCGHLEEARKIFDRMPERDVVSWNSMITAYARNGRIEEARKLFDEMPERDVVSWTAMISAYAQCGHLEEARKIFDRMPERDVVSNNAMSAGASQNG

[2] = target: T2, GFP-9S library array, motif 4 ND N98D;D124E (synthetic construct, N98D;D124E)
T2 chain: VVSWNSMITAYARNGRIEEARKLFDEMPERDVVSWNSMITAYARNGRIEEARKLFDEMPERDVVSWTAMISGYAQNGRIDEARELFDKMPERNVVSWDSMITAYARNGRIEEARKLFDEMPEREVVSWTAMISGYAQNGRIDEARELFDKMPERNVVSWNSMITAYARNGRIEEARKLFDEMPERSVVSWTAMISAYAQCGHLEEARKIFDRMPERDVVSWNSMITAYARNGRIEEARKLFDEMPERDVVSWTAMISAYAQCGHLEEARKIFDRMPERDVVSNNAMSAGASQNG

[3] = target: T3, GFP-9S library array, motif 4 ND N98Q;D124V (synthetic construct, N98Q;D124V)
T3 chain: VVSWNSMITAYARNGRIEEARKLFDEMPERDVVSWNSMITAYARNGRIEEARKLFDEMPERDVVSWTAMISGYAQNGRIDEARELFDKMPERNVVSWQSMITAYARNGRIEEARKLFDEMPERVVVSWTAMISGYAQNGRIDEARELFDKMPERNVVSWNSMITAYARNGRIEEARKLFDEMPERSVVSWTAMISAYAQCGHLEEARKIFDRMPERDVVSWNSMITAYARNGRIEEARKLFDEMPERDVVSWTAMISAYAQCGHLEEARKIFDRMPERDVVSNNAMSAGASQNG

[4] = target: T4, GFP-9S library array, motif 4 ND N98R;D124K (synthetic construct, N98R;D124K)
T4 chain: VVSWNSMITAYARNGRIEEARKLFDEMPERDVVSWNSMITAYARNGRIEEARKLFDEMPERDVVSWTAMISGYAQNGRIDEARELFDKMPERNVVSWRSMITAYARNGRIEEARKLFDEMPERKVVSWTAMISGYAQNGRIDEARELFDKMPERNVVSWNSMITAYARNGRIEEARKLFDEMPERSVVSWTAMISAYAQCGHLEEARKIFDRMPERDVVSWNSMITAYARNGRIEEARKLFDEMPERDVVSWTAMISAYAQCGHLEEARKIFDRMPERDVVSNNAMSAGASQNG

[5] = target: T5, GFP-9S library array, motif 4 ND N98D;D124Y (synthetic construct, N98D;D124Y)
T5 chain: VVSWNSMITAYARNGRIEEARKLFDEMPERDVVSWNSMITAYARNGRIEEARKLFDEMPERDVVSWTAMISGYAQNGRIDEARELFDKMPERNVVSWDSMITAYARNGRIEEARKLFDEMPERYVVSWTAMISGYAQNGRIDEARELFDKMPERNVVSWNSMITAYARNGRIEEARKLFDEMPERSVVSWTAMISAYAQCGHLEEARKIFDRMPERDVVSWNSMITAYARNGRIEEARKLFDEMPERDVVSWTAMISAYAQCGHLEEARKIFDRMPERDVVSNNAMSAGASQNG

Binder	Kd ([1]; label: 5' Cy5)	Kd ([2]; label: 5' Cy5)	Kd ([3]; label: 5' Cy5)	Kd ([4]; label: 5' Cy5)	Kd ([5]; label: 5' Cy5)	Kd ([1]; label: 5' IRDye 800CW)	Kd ([2]; label: 5' IRDye 800CW)	Kd ([3]; label: 5' IRDye 800CW)	Kd ([4]; label: 5' IRDye 800CW)	Kd ([5]; label: 5' IRDye 800CW)
AUUACACGUGA (ssRNA) [Cy5-rpoA]	86.7 nM	124 nM	3530 nM	136 nM	153 nM					
AUUAGACGUGA (ssRNA) [Cy5-rpoA-G]	104 nM	95.2 nM	3040 nM	161 nM	246 nM					
AUUAAACGUGA (ssRNA) [IR-rpoA-A]						134 nM	343 nM	4090 nM	420 nM	1180 nM
AUUAUACGUGA (ssRNA) [IR-rpoA-U]						105 nM	283 nM	3180 nM	202 nM	266 nM
